Sequences and labels used below:
T1: PNPase (polynucleotide phosphorylase) (Caulobacter crescentus, UniProt Q9AC32 1-712)
T1 sequence: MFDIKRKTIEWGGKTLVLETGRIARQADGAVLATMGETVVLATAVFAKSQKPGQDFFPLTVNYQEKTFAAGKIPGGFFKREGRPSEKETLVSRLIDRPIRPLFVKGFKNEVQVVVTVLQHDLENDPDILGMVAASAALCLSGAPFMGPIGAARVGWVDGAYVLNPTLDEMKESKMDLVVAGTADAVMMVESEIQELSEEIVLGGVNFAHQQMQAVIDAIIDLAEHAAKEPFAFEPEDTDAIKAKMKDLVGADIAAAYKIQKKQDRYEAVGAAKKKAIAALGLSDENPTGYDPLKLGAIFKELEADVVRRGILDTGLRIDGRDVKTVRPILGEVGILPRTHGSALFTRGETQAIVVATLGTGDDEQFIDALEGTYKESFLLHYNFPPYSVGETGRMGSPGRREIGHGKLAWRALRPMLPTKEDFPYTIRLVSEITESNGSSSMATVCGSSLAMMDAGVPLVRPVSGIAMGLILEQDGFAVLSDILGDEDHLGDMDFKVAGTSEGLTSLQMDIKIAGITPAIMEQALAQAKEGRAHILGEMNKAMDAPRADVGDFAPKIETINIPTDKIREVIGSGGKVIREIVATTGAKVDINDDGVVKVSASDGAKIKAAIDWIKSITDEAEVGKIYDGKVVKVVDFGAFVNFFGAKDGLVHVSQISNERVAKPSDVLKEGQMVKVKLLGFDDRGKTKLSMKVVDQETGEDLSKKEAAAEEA

B1: Caulobacter crescentus polynucleotide phosphorylase (enzyme, UniProt B8GWZ0 1-712, looked up)
chain: T1 sequence
notes: polynucleotide phosphorylase, pnp gene (CC0034), amplified from genomic DNA of C. crescentus strain NA1000 with primers from the start codon to the stop codon; Two alternative constructs were made (GST-PNPase from pGEX-6p-1, GST cut off with PreScission protease; 6xHis-PNPase from pET-DUET); the two tags are not on one chain; also called PNPase; C. crescentus PNPase; source: E. coli, purified …
B2: GST fused to the PNPase recognition peptide of RNase E (TAPPEKPRRGWWRR) (peptide)
chain: TAPPEKPRRGWWRR
notes: C-terminal PNPase recognition peptide of C. crescentus RNase E, encoded by the 3' end of the rne gene (cc1877); Cloned in pGEX-6p-1 through BamHI and XhoI; also called GST–GWW; GST–GWW peptide; source: E. coli, purified (glutathione sepharose); not shown: GST, N-terminal, kept
B3: C. crescentus PNPase recognition peptide from RNase E (EKPRRGWWRR) (peptide)
peptide: EKPRRGWWRR
notes: last 10 amino acids of C. crescentus RNase E; also called GWW peptide; RNase E recognition peptide; source: synthetic peptide (Cambridge Research Biochemicals)

Data set [1] concerns the molecule itself. In words: crystal structure; apo-PNPase co-crystallised with the peptide at 2 : 1 molar excess; rhombohedral (R3) and hexagonal (P6_(3)) forms, sitting drop, 18°C.
Data set [2] has as its target B1. Kind of data set: native gel or EMSA; approximate fourfold molar excess of GST-peptide mixed with PNPase, 20 mM Tris–HCl pH 7.5, 200 mM NaCl, room temperature 10 min, 8 per cent non-denaturing PAGE. As to conditions: both partners purified. Background: In EMSA bound probe runs differently from free probe, usually more slowly.
In data set [3] the target is T1, PNPase (polynucleotide phosphorylase). Kind of data set: X-ray crystallography; co-crystallized with apo-PNPase; same cell and space group (P22121) as endogenous RNA complex; Crystals of RNA-bound PNPase: 24% w/v PEG 3350, 0.1 M bis-Tris pH 5.5, 0.1 M ammonium acetate, 18 C. The following applies: protein: recombinant; tags: 6xHis N-terminal (pET-DUET) or N-terminal GST (pGEX-6p-1) removed with PreScission; chain copies: 3.

The target of data set [4] is B1. Kind of data set: crystal structure; apo-PNPase co-crystallised with the peptide at 2 : 1 molar excess; rhombohedral (R3) and hexagonal (P6_(3)) forms, sitting drop, 18°C. As to conditions: both partners purified.

For orientation: stoichiometry N means the number of molecules, sites or subunits per partner or assembly. Take B1: the “stoichiometry N” value in data set [1] came to 3.

On to B2, for which the binding result in data set [2] is given as “binds”.

For the molecule GUUUAUUGCCGUUCUUGUUAUAUGCCUU (ssRNA) [27mer MicC portion RNA], in data set [3], the binding result is “binds”.

Regarding B3, the binding result in data set [4] is “binds”.
